Molecular target: T1, B18-FL (Vaccinia virus strain Western Reserve B18 protein with a FLAG epitope at the C terminus, sec (Vaccinia virus strain Western Reserve, UniProt P25213 20-351))
T1 construct: mature
Assay: covalent crosslinking in solution, SDS-PAGE

B1: [^32P]-His-Strep-IFN-λ1-P (secreted human IFN-λ1 with N-terminal His-Strep tag and C-terminal phosphorylation site) (ligand)
chain: HHHHHHPDHWSHPQFEKGPVPTSKPTTTGKGCHIGRFKSLSPQELASFKKARDALEESLKLKNWSCSSPVFPGNWDLRLLQVRERPVALEAELALTLKVLEAAAGPALEDVLDQPLHTLHHILSQLQACIQPQPTAGPRPRGRLHHWLHRLQEAPKKESAGCLEASVTFNLFRLLTRDLKYVADGNLCLRTSTHPESTRRASVA
notes: mature; also called His-Strep-IFN-λ1J-P
B1: no binding.

— patent US20150139999A1 (RUTGERS THE STATE UNIVERSITY OF NEW JERSEY, published 2015)
